# Molecular target: Ag85b protein from Mycobacterium tuberculosis (poly-His tagged test protein) (Mycobacterium tuberculosis)
substance,measurement,value
splenocytes of mice injected with Sbi-III-IV-Ag85b (cells without a defined receptor),Secreted IFN-gamma in the tissue culture supernatant (ELISA),4 fold

# From patent US20190282683A1
